# Source: patent US20170355766A1 (Xencor, published 2017)
# Read-outs that look alike come from different tables or passages of the source.
# T1: FcγRIIaR (human, UniProt P12318)
# T1 construct: recombinant receptor protein with 6xHis and GST tags; also called R131 FcγRIIa
# T1 sequence (receptor, looked up): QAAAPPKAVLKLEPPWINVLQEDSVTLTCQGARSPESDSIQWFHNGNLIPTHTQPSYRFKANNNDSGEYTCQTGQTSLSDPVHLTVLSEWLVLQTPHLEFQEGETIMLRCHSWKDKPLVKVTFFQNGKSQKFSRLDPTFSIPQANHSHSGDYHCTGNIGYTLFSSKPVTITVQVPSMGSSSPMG
# T2: human H131 FcγRIIa receptor protein (6xHis and GST tags) (human, UniProt P12318 34-217, limits assumed)
# T2 construct: also called HIIa
# T2 sequence (looked up): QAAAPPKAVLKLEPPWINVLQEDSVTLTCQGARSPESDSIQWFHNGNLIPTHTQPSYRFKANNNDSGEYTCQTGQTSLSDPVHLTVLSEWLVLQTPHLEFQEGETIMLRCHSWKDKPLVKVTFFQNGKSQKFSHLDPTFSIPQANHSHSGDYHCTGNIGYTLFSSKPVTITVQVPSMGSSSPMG
# T3: human FcγRIIb receptor protein (R&D Systems) (human, UniProt P31994 46-217)
# T3 construct: Analyte injected over antibodies captured on a protein A/G chip (Biacore); also called CD32b
# T3 sequence (looked up): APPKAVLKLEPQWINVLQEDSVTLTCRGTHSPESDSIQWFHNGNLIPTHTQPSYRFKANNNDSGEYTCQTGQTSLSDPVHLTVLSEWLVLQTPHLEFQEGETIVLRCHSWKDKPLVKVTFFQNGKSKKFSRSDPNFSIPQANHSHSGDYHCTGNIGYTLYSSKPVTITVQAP
# T4: human FcγRIIb on the cell surface (HEK293T cells transfected with human FcγRIIb cDNA; primary human B cells) (human, UniProt P31994 43-310)
# T4 chain: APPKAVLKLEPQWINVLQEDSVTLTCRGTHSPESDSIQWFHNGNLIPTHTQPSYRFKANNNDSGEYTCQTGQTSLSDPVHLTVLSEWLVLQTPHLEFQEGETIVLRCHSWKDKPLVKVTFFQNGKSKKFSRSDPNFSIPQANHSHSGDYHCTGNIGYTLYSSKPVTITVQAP
# Legend:
# FcγRIIaR = biological target: T1, FcγRIIaR; assay: SPR (Biacore)
# [1] = biological target: T5, human V158 FcγRIIIa receptor protein (6xHis and GST tags) (human, UniProt P08637 17-208, limits assumed); assay: SPR (Biacore)
# T5 construct: also called VIIIa
# [2] = biological target: T6, human FcγRI receptor protein (R&D Systems) (human, UniProt P12314 16-288); assay: SPR (Biacore)
# T6 construct: also called CD64
# [3] = biological target: T2, human H131 FcγRIIa receptor protein …; assay: SPR (Biacore)
# [4] = biological target: T3, human FcγRIIb receptor protein (R&D …); assay: SPR (Biacore)
# [5] = biological target: T3, human FcγRIIb receptor protein (R&D …); assay: Biacore SPR ('according to the data herein')
# Protocol: (§1) Variants were screened for receptor affinity using Biacore™ technology, also referred to as Biacore herein, a surface plasmon resonance (SPR) based technology for studying biomolecular interactions in real time. SPR measurements were performed using a Biacore 3000 instrument (Biacore, Piscataway, N.J.). A protein A/G (Pierce Biotechnology) CM5 biosensor chip (Biacore) was generated using a standard primary amine coupling protocol. All measurements were performed using HBS-EP buffer (10 mM HEPES pH 7.4, 0.15 M NaCl, 3 mM EDTA, 0.005% vol/vol surfactant P20, Biacore). Antibodies at 20 nM or 50 nM in HBS-EP buffer were immobilized on the protein A/G surface and FcγRs were injected. After each cycle, the surface was regenerated by injecting glycine buffer (10 mM, pH 1.5). Data were processed by zeroing time and response before the injection of FcγR and by subtracting appropriate nonspecific signals (response of reference channel and injection of running buffer). Kinetic analyses were performed by global fitting of binding data with a 1:1 Langmuir binding model using BIAevaluation software (Biacore).
# [6] = biological target: T4, human FcγRIIb on the cell surface …; assay: flow cytometry on FcγRIIb-transfected HEK293T cells
# [7] = biological target: T4, human FcγRIIb on the cell surface …; assay: as above
# [8] = biological target: T4, human FcγRIIb on the cell surface …; assay: as above
# [9] = biological target: T3, human FcγRIIb receptor protein (R&D …); assay: Biacore SPR, antibody captured on protein A/G, FcγR injected
# Protocol: as §1
# [10] = biological target: T4, human FcγRIIb on the cell surface …; assay: flow cytometry on HEK293T cells transfected with human FcγRIIb, PE anti-human Fab detection
# T5 sequence (P08637 17-208 F176V limits assumed): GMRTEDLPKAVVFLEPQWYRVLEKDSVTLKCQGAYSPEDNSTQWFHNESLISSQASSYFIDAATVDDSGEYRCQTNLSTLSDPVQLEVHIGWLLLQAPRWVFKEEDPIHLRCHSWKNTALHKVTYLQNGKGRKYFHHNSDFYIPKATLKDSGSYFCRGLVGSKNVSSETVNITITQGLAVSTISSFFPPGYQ
# T6 sequence (P12314 16-288 limits assumed): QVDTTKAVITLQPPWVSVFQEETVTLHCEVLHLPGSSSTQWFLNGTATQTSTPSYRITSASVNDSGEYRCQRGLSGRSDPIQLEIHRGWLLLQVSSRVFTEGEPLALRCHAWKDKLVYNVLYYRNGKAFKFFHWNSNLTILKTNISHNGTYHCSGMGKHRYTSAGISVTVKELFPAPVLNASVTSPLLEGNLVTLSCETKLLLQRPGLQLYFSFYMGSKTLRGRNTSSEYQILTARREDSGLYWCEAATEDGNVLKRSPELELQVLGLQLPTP
Binder,Fold FcγRIIaR (FcγRIIaR) [fold],Fold FcγRIIIaV [1] [fold],Fold FcγRI [2] [fold],Fold FcγRIIaH [3] [fold],Fold FcγRIIb [4] [fold],Kd [5] [nM],EC50 (read off the curve) [6] [ng/mL],EC50 (read off the curve) [7] [ng/mL],EC50 (read off the curve) [8] [ng/mL],improvement in affinity relative to WT IgG1 [9],fold EC50 relative to WT IgG1 [10] [fold]
"anti-CD19 WT IgG1 antibody (HuAM4G7 Fv, native human IgG1 Fc) (antibody, Parent of the Fc variants; also called anti-CD19-IgG1; anti-CD19 IgG1 WT; copies: 2 + 2) heavy: not shown light: DIVMTQSPATLSLSPGERATLSCRSSKSLQNVNGNTYLYWFQQKPGQSPQLLIYRMSNLNSGVPDRFSGSGSGTEFTLTISSLEPEDFAVYYCMQHLEYPITFGAGTKLEIKRTVAAPSVFIFPPSDEQLKSGTASVVCLLNNFYPREAKVQWKVDNALQSGNSQESVTEQDSKDSTYSLSSTLTLSKADYEKHKVYACEVTHQGLSSPVTKSFNRGEC",1,1,1,1,1,~1500,,,,,
"anti-CD19 antibody HuAM4G7 IgG1 Fc variant S267E (antibody, Positions are EU numbers, not positions on the UniProt entry; copies: 2 + 2) heavy: not shown light: DIVMTQSPATLSLSPGERATLSCRSSKSLQNVNGNTYLYWFQQKPGQSPQLLIYRMSNLNSGVPDRFSGSGSGTEFTLTISSLEPEDFAVYYCMQHLEYPITFGAGTKLEIKRTVAAPSVFIFPPSDEQLKSGTASVVCLLNNFYPREAKVQWKVDNALQSGNSQESVTEQDSKDSTYSLSSTLTLSKADYEKHKVYACEVTHQGLSSPVTKSFNRGEC",29.5,0.381,2.81,,20.4,,~30,~20,,,
"V266M/S267E (antibody, human IgG1, kappa, HuAM4G7 IgG1 Fc variant) heavy: not shown light: DIVMTQSPATLSLSPGERATLSCRSSKSLQNVNGNTYLYWFQQKPGQSPQLLIYRMSNLNSGVPDRFSGSGSGTEFTLTISSLEPEDFAVYYCMQHLEYPITFGAGTKLEIKRTVAAPSVFIFPPSDEQLKSGTASVVCLLNNFYPREAKVQWKVDNALQSGNSQESVTEQDSKDSTYSLSSTLTLSKADYEKHKVYACEVTHQGLSSPVTKSFNRGEC",30.7,0.0448,1.98,,29.2,,~10,,,,
"anti-CD19 antibody HuAM4G7 IgG1 Fc variant S267E/H268E (antibody, Positions are EU numbers, not positions on the UniProt entry; also called H268E/S267E; copies: 2 + 2) heavy: not shown light: DIVMTQSPATLSLSPGERATLSCRSSKSLQNVNGNTYLYWFQQKPGQSPQLLIYRMSNLNSGVPDRFSGSGSGTEFTLTISSLEPEDFAVYYCMQHLEYPITFGAGTKLEIKRTVAAPSVFIFPPSDEQLKSGTASVVCLLNNFYPREAKVQWKVDNALQSGNSQESVTEQDSKDSTYSLSSTLTLSKADYEKHKVYACEVTHQGLSSPVTKSFNRGEC",41.7,3.15,3.52,,40.6,,~10,,,,
"anti-CD19 antibody HuAM4G7 IgG1 Fc variant L235Y/S267E (antibody, Positions are EU numbers, not positions on the UniProt entry; copies: 2 + 2) heavy: not shown light: DIVMTQSPATLSLSPGERATLSCRSSKSLQNVNGNTYLYWFQQKPGQSPQLLIYRMSNLNSGVPDRFSGSGSGTEFTLTISSLEPEDFAVYYCMQHLEYPITFGAGTKLEIKRTVAAPSVFIFPPSDEQLKSGTASVVCLLNNFYPREAKVQWKVDNALQSGNSQESVTEQDSKDSTYSLSSTLTLSKADYEKHKVYACEVTHQGLSSPVTKSFNRGEC",37.5,,0.00347,0.941,37.2,,,,~6,,
"anti-CD19 antibody S267E/L328F (HuAM4G7 Fv, human IgG1 Fc with S267E/L328F) (antibody, They are treated here as one molecule; also called anti-CD19-S267E/L328F; a-CD19 S267E/L328F; copies: 2 + 2) heavy: not shown light: DIVMTQSPATLSLSPGERATLSCRSSKSLQNVNGNTYLYWFQQKPGQSPQLLIYRMSNLNSGVPDRFSGSGSGTEFTLTISSLEPEDFAVYYCMQHLEYPITFGAGTKLEIKRTVAAPSVFIFPPSDEQLKSGTASVVCLLNNFYPREAKVQWKVDNALQSGNSQESVTEQDSKDSTYSLSSTLTLSKADYEKHKVYACEVTHQGLSSPVTKSFNRGEC",275,0.038,1.5,,242,,,,,> 2 orders of magnitude,~320
